What was measured:
[1] = test system: MS2 coat protein; assay: apparent KD of MS2 coat protein; designed switch direction (-1 OFF switch, 1 ON switch): 1; higher = weaker reporter binding
Method in brief: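 On Illumina chips, designed RNA switches with common flanks were made by stalled E. coli RNA polymerase. Titrations with SNAP-549-labelled MS2 coat protein, doubling from 0.7 or 1.5 nM to 3 µM, were done with no input, with 200 uM small-molecule ligand, or with an oligonucleotide input. Apparent KD is the median per design over clusters, from curve fits of normalised cluster fluorescence.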

[2] = test system: MS2 coat protein; assay: apparent KD of MS2 coat protein; higher = weaker reporter binding; settings: Eterna round: R107
Method in brief: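 Designed RNA switches, transcribed on-chip from Illumina sequencing clusters, were titrated with SNAP-549-labelled MS2 coat protein from 0.7 or 1.5 nM to 3 µM in twofold steps. The solution was 100 mM Tris-HCl pH 7.5, 80 mM KCl, 4 mM MgCl2, with constant ligand or without it. Apparent KD is the median over each design's normalised cluster binding-curve fits.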

[3] = input ligand: microRNA oligo, concentration not stated
[4] = input ligand: theophylline 20 uM
[5] = input ligand: theophylline 2 mM
[6] = input ligand: tryptophan 2.4 mM

Row | Sequence | apparent KD of MS2 coat protein [1, 3] | apparent KD of MS2 coat protein ([1]; input ligand: FMN 200 uM) | apparent KD of MS2 coat protein ([1]; input ligand: none) | apparent KD of MS2 coat protein ([2]; input ligand: arginine 13.2 mM) | apparent KD of MS2 coat protein ([2]; input ligand: none) | apparent KD of MS2 coat protein [2, 4] | apparent KD of MS2 coat protein [2, 5] | apparent KD of MS2 coat protein [2, 6]
1 | AAAAAACAUGAGGAUCACCCAUGUCUUUUGACAUGAGGAUAUGUACAGACUUCGGUCUGUACAGAAGGCAUGUAAA [SS1 - 1028] (Eterna round: R96, puzzle: Same State 1) | 336 nM | – | – | – | – | – | – | –
2 | AAAAGAAACACAGGAUAUACCGCACUUAACGCGGUAGAAGGGUGGGACAUGAGGAUCACCCAUGUGGUCUGGGCGCCAGACCGC [Esratean] (Eterna round: R96, puzzle: Same State NG 1) | 23.3 nM | 29.1 nM | 22 nM | – | – | – | – | –
3 | AAAAGAAACGCAGGAUAUGCACAUGAGGAUCACCCAUGUCCCACAGGCUCGACCGAGCCCGUGAAGCAGAAGGGUGUAAGAAAA [Redibere] (Eterna round: R96, puzzle: Same State NG 2) | 426 nM | 82.5 nM | 3390 nM | – | – | – | – | –
4 | AAAAGAACCACAGGAUAUACACUCCUAGCGGCGGUAGAAGGGUGGAACAUGAGGAUCACCCAUGUACGUCUGGAAUCAGACUAA [Radianis] (Eterna round: R96, puzzle: Same State NG 1) | 233 nM | 267 nM | 857 nM | – | – | – | – | –
5 | AAAAGACAUGAGGAUCACCCAUGUCAAGACGUGGGAGGAUAUGCAUGGAAAACAUGCUGUGCAGAAGGCCCGUGUC [SS1 - 20] (Eterna round: R96, puzzle: Same State 1) | 16.6 nM | 16.2 nM | 24 nM | – | – | – | – | –
6 | UUACAUGAGGAUCACCCAUGUCAUACAGAAGGAGCGUCACAUAAGACAGGUAGGUCGCUGUUAUAUCAUACUAUUAUAUCCUCUA [JR_Nu_ExcArginiA_Sub028] | – | – | – | 22 nM | 40.4 nM | 53.5 nM | 38.2 nM | 33 nM
7 | UUACAUGAGGAUCACCCAUGUCAUACAGAAGGAGCGUCACAUAAGACAGGUAGGUCGCUGUUAUUUUUUACUAUUAUAUCCUCUA [JR_Nu_ExcArginiA_Sub030] | – | – | – | 25 nM | 30.8 nM | 45.8 nM | 31.7 nM | 25.9 nM
8 | UUAUAAGCACCUGAUACCAGUAUGAACCCGUACAUGAGGAUCACCCAUGUUAAUUUCUAUUACCCUUGGCAGCAGCCUUUUUCCU [theeternabot_sameState_MS2_Theo_B_2] | – | – | – | 18.7 nM | – | 28.8 nM | – | 21.7 nM
9 | UUAUAAGUACCGGUCCUCAGAUCCUCAUGACGAGGACCGGUACGGCCGCCACUCGAAACAUGAGGAUCACCCAUGUAAUAACAUC [Brourdmod21] | – | – | – | 19 nM | – | 27.5 nM | 25.9 nM | –
10 | UUAUGCAGGUCGGCCGCCACUACACACAUGAGGAUCACCCAUGUAGUUACUGGGUGAAGUGGCAGUAGGACCGGGACCCGCACAU [Brourdmod21] | – | – | – | 151 nM | 367 nM | 388 nM | 612 nM | 383 nM
11 | UUAUUUAUAAUUGAUACCAGUUUAAUGGCCGCAAAUCCUGACAUGAGGAUCACCCAUGUAAGCCCUUGGCAGCGGUUAUGGGUUU [XTheo B #25] | – | – | – | 22.8 nM | – | 26.4 nM | – | 22.1 nM
12 | UUAUUUAUAGGCGAUACCAGCCGAAUGGCCGCAAAUCCUAACAUGAGGAUCACCCAUGUCGGCCCUUGGCAGCGCCUAUGGGUUU [XTheo B #27] | – | – | – | 114 nM | 94.7 nM | 255 nM | 480 nM | 93.3 nM
13 | UUCAAAGGGAACGGUGCUGGUGACAGAGAUACCAGAGUAGUAAUACUCCCUUGGCAGCUCAGAACAUGAGGAUCACCCAUGUAAU [Exclusion Theophylline A GF22] | – | – | – | 18.5 nM | 18 nM | 29.1 nM | 59.2 nM | 17.6 nM
14 | UUCACGGGCACGGCCGCCACUAACCAACAUGAGGAUCACCCAUGUGUAUUGGACGACCUCUUUGCUAGGACCGGGUGUAUGGUUC [theeternabot_exclusion_MS2_Trp_B_15] | – | – | – | 25.3 nM | – | 32.3 nM | 32.6 nM | –
15 | UUCAGCUAGUCGGCCGCCACUACAAGAGGAUCACCCUUGUAAUCCUAACACUGCUUCGGCAGUGGUAGGACCGGGACUAGCUGAG | – | – | – | 15.1 nM | 14.4 nM | 17.3 nM | 13.8 nM | 20.1 nM
16 | UUCAGCUAGUCGGCCGCCACUACAAGAGGAUCACCCUUGUAGGUCCACACUGCUUCGGCAGUGAGUAGGACCGGGACUAGCUGAG | – | – | – | 10.9 nM | 11.3 nM | 13.1 nM | 13.7 nM | 17.7 nM
17 | UUCAGCUAGUCGGCCGCCACUACACGAGGAUCACCCGUGUUCCUAAAACACUGCUUCGGCAGUGGUAGGACCGGGACUAGCUGAG | – | – | – | 27.7 nM | 27.9 nM | 33 nM | 36.7 nM | 123 nM
18 | UUCGCUGAGGGAAGGAGCGUGAAGACAUGAGGAUCACCCAUGUAGAGGCGCCGAAGGCGUUCGCAGGUAGGUCGCCCUCAGUGAG [#1 Same State - Arginine B Attempt #23 (HarryS)] | – | – | – | 17.1 nM | 16.4 nM | 24.7 nM | 17.7 nM | 17.3 nM
